In test [1] the target is wild-type heterotrimeric human Gαi1β1γ1 (human) (UniProt P63096). As to the kind of experiment: MST.
Test [2] shares this target. The test is described as follows: BLI. (In BLI a coated tip is dipped into the sample, and binding shifts an interference pattern.)
Test [3] shares this target. As to the kind of experiment: MST. The source holds these as a separate data set.
Test [4] has the same target. The test is described as follows: MST. This is another data set of the same source.
For test [5] the target is unchanged. As to the kind of experiment: MST. This is another data set of the same source.

Read-outs that look alike come from different tables or passages of the source.

This note sets out measurements from paper PMC8176890.

wild-type heterotrimeric human Gαi1β1γ1 (human), sequence (P63096 whole entry, chain 1 of 3): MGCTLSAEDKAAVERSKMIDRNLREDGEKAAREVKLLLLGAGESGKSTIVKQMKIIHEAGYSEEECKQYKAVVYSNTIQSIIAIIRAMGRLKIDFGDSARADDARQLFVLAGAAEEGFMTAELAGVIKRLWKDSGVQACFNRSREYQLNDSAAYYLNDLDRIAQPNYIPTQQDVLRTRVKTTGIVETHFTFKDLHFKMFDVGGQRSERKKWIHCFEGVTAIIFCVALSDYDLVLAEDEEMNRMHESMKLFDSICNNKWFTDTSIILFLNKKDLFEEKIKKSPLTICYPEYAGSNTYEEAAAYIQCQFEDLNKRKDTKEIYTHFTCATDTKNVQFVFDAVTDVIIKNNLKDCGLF
wild-type heterotrimeric human Gαi1β1γ1 (human), sequence (P62873 2-340, chain 2 of 3, further chain): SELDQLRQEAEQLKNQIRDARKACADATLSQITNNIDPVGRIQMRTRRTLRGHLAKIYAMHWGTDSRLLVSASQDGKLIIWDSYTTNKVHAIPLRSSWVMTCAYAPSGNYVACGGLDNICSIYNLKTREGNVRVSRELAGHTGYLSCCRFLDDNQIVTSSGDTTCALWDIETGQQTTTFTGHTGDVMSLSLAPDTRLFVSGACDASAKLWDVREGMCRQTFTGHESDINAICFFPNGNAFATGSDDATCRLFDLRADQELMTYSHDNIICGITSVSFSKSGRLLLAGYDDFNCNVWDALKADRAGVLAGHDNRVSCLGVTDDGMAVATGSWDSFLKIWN
wild-type heterotrimeric human Gαi1β1γ1 (human), sequence (P63211 2-74, chain 3 of 3, further chain): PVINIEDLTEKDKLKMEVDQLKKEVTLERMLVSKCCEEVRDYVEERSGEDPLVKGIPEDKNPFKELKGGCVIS

For the substance “NTS-NTSR1 complex: neurotensin 8-13 bound to rat NTSR1 TM86V-L167R ΔIC3B (from UniProt P20789 50-390)”, the Kd in test [1] worked out at 0.236 µM; in test [3], 0.076 µM; in test [4] it was 1.4 µM; in test [5], 0.053 µM. The same substance had a KD of the high-affinity binding mode (2:1 model) in test [2] of 0.0058 µM. For the same substance, the KD of the lower-affinity binding mode (2:1 model) in test [2] turned out to be 0.038 µM.

Turning to “NTS-NTSR1 complex with the 5-alanine mutant TM86V-L167R E166A/K176A/K178A/S182A/R185A (from UniProt P20789 50-390)”, the Kd in test [3] was 0.347 µM.

The term Kd denotes the free concentration of one partner at which half of the binding sites on the other are occupied at equilibrium, for simple one-to-one binding.
